According to patent US20240400717A1, “Antibody Binding to CHI3L1 for Treating Cancer” (National Cheng Kung University, priority 2021, published 2024):

Key:
MiaPaCa-2 cells = assay: MiaPaCa-2 subcutaneous xenograft NOD-SCID mice, efficacy and toxicity; format: in vivo
Protocol: Next, we examined whether our mAb clones R4-4 and R4-54 exert any toxicity in vivo. We performed a xenograft model by subcutaneously implanting MiaPaCa-2 cells to NOD-SCID mice. The mice were i.v. injected with IgG isotype, mAb clone R4-4, or clone R4-54 (5 mg/kg) once a week starting from day 7 to day 21, that is, day 7, day 14, and day 21, and mice were sacrificed on day 28. […] To evaluate the potential safety of our developed mAbs, we examined body weight, serum biochemical markers and histology sections of three major organs of tumor-bearing mice. […] Scale bar 100 μm. P values were determined by one-way ANOVA. * P<0.05, ** P<0.01, *** P<0.001, **** P<0.0001.

[1] = test system: MiaPaCa-2, SW480 and A549 cells; assay: Wound healing assay with rCHI3L1; format: cell-based, human; settings: MiaPaCa-2, SW480, A549; 16 hours
Protocol: Since AKT regulates cell migration, we further performed wound healing assay to examine the anti-migratory effect of mAbs on pancreatic (MiaPaCa-2), colorectal (SW480), and lung (A549) cells. We observed that after 16 hours, the wound closure area was increased compared to that in control groups upon rCHI3L1 treatment. […] Taken together, our fully human monoclonal CHI3L1 neutralizing antibody clones R4-4, R4-54, 293R3-2, and 293R3-4 blocked the CHI3L1 induced signaling and cell behaviors of tumor cells. The data was presented as mean±S.D. (n=3 per group). P values were determined by one-way ANOVA. * P<0.05, ** P<0.01, *** P<0.001, **** P<0.0001.

[2] = target: CHI3L1-receptor(s) interaction on HCT116, SW480, SW620, PANC1 and MiaPaCa-2 (Homo sapiens, UniProt P36222); assay: Flow cytometry blockage of rCHI3L1-receptor(s) interaction, colorectal and pancreatic cancer cell lines; format: cell-based; settings: HCT116, SW480, SW620, PANC1, MiaPaCa-2, flow cytometry
Protocol: CHI3L1 have been reported to interact with several receptors on cancer cells, and trigger downstream signaling for cancer cell growth, proliferation and anti-apoptosis (Kamba et al. 2013; Lee et al. 2016). […] His-tagged rCHI3L1 was added for CHI3L1-receptor(s) interaction. Anti-His antibody AHAb with fluorescent F recognized CHI3L1-receptor(s) R complex for detection (left, FIG. 4A). Once fully human mAbs (nCHI3L1 Ab) blocked the CHI3L1-receptor(s) interaction, the fluorescent F signals were decreased (right, FIG. 4A) and cell signaling CS was blockade.
Four selected clones of mAbs including R4-4, R4-54, 293R3-2, and 293R3-4 were further tested for blocking effect on human colorectal (HCT116, SW480, and SW620) and pancreatic cancer cell lines (PANC1 and MiaPaCa-2). […] P values were determined by one-way ANOVA. * P<0.05, ** P<0.01, *** P<0.001, **** P<0.0001. For binding specificity examination, we further coated different concentration of recombinant CHI3L1 protein, and two other major proteins in chitinase family including human chitotriosidase-1 (CHIT1) and CHI3L2 from 2.5 μg/ml to 0 μg/ml, on 96-well plate.

hCHI3L1/flag-His [3] = target: T1, hCHI3L1/flag-His (Homo sapiens, UniProt P36222); assay: ForteBio biolayer interferometry binding analysis; settings: mAb loaded on AHC sensor, analyte hCHI3L1
T1 construct: human CHI3L1 extracellular domain fused with flag and His tag
Protocol: Anti-CHI3L1 mAbs were loaded at 5 μg/mL on AHC (Anti-Human IgG Fc Capture, ForteBio, Cat #18-5060) for signal reach to approximate 0.5 nm. Sensors then were exposed to human CHI3L1 extracellular domain fused with flag and His tag recombinant protein, hCHI3L1/flag-His, solutions at 10 nM with 2 time serial dilution for 7 concentrations. Measurement were performed as follows: 1 min baseline in kinetic buffer, 5 minute association in 7 different concentrations hCHI3L1/flag-His and 5 minute dissociation into kinetic buffer. The kinetic parameters were calculated and produced by Octet Data Acquisition and Analysis Software.

HCT116 and A549 cells = assay: Immunoblot of rCHI3L1-induced AKT and ERK phosphorylation, HCT116 and A549; format: cell-based, human; settings: HCT116 and A549, time course
Protocol: The involvement of CHI3L1 in intracellular signaling pathways has been reported. For example, CHI3L1 binding to CD44 activates protein kinase B (AKT) and extracellular signal-regulated kinase (ERK) signaling to promote cancer progression (Chen, Jiang et al. 2021). Thus, we tested whether mAb clones R4-4, R4-54, 293R3-2, and 293R3-4 could attenuate AKT and ERK phosphorylation in human pancreatic (PANC1), colorectal (HCT116), and lung (A549) cancer cell lines. PANC1 cells were treated with rCHI3L1 (100 ng/ml) only or rCHI3L1 with different dose of mAbs as indicated for 20 minutes.

hCHI3L1/flag-His [4] = target: T1, hCHI3L1/flag-His; assay: In tandem epitope binning on Octet Red96; format: binding
Protocol: In order to know the epitopic coverage for those four antibodies to increase the success of therapeutic CHI3L1 antibody development, epitope binning is used to characterize the binding site of mAbs to the corresponding antigen and summarized in the Table 4. In epitope binning, mAbs specific to the same target protein are tested pairwise against all mAbs in a set to assess whether they block one another's binding to a specific site of the antigen or not. The mAbs that block binding to the same epitope are “binned” together. mAbs within the same bin often function similarly, so epitope bins can narrow down the choices to fewer candidates for investigators to choose from. The in tandem epitope binning assay conducted on Octet Red96 comprised a five-step binding cycle; 1) a buffer baseline was established for 30 sec, 2) 100 nM hCHI3L1/flag-His was captured for 5 min, 3) 100 nM mAb array was loaded to saturate the captured antigen for 10 min, 4) 100 nM of the test mAb was bound for 5 min, and 5) the capture surfaces were regenerated for 30 sec. Anti-His surfaces were regenerated with 10 mM glycine pH 1.7. Raw data was processed using ForteBio's Data Analysis HT Software 11.1 and the antibody pairs were assessed for competitive binding. Additional binding by the second antibody indicates an unoccupied epitope (non-competitor, marked as *c in Table 4), while no binding indicates epitope blocking (competitor, marked as *b in Table 4) and self-competing antibodies were marked as *a in Table 4. Among four anti-CHI3L1 mAbs, there are two epitope clusters.

T1 sequence (P36222 22-383): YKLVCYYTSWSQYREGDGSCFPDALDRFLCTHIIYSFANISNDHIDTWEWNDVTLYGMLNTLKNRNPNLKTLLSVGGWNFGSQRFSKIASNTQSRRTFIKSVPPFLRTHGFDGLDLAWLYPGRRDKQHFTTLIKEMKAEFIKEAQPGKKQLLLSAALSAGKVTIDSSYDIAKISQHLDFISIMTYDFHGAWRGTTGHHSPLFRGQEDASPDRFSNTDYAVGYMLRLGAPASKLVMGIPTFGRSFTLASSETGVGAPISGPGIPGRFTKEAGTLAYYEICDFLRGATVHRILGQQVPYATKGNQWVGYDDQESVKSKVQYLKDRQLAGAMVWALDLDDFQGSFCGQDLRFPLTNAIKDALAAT
Chain of CHI3L1-receptor(s) interaction on HCT116, SW480, SW620, PANC1 and MiaPaCa-2 (P36222 22-383): as above

rCHI3L1 binding to cells [2]: significantly reduced
koff (hCHI3L1/flag-His [3]): 0.0065 s⁻¹
kon (hCHI3L1/flag-His [3]): 1.54e+06 M⁻¹ s⁻¹
epitope cluster (hCHI3L1/flag-His [4]; among four anti-CHI3L1 mAbs): unidirectional blocking results
competitive binding class, CHI3L1 293R3-2 (hCHI3L1/flag-His [4]; paired with CHI3L1 293R3-2): *^b
Epitope Binning Heat Map value, CHI3L1 293R3-2 (hCHI3L1/flag-His [4]; paired with CHI3L1 293R3-2, 100 nM each): 0.1002
competitive binding class, CHI3L1 293R3-4 (hCHI3L1/flag-His [4]; paired with CHI3L1 293R3-4): *^b
Epitope Binning Heat Map value, CHI3L1 293R3-4 (hCHI3L1/flag-His [4]; paired with CHI3L1 293R3-4, 100 nM each): 0.1425
competitive binding class, CHI3L1 R4-4 (hCHI3L1/flag-His [4]; paired with CHI3L1 R4-4): *^c
Epitope Binning Heat Map value, CHI3L1 R4-4 (hCHI3L1/flag-His [4]; paired with CHI3L1 R4-4, 100 nM each): 1.1166
competitive binding class, CHI3L1 R4-54 (hCHI3L1/flag-His [4]; paired with CHI3L1 R4-54): *^a
Epitope Binning Heat Map value, CHI3L1 R4-54 (hCHI3L1/flag-His [4]; paired with CHI3L1 R4-54, 100 nM each): 0.2160
B1: R4-54: fully human anti-CHI3L1 IgG1 mAb, Table 1 No. 34; heavy chain SEQ ID NO: 33, light chain SEQ ID NO: 34 (antibody, listed as Homo sapiens)
VH: QVQLVESGGGVVQPGRSLRLSCAASGFTFSSYGMHWVRQAPGKGLEWVAVISYDGSDKDYADSVKGRFTISRDNSKNTLFLQMNSLRAEDTAVYYCARDDYDSTYYFDNWGQGTTVTVSS
light: SYELTQPPSVSVSPGQTASITCSGDILADQYASWYQQKPGQSPVLVIYHDTKRPSGVPERFSGSTSGNTATLTISGTQAMDEAAYYCQAWDINTAWVFGGGTQLTVLGQPKAAPSVTLFPPSSEELQANKATLVCLISDFYPGAVTVAWKADSSPVKAGVETTTPSKQSNNKYAASSYLSLTPEQWKSHRSYSCQVTHEGSTVEKTVAPTECS
histology of liver, lung and kidney (MiaPaCa-2 cells; 5 mg/kg i.v.): no significant adverse effects
growth of MiaPaCa-2 subcutaneous xenografts (MiaPaCa-2 cells; 5 mg/kg i.v. day 7, 14, 21, sacrificed day 28): significantly delayed the growth
mice body weight (MiaPaCa-2 cells; 5 mg/kg i.v., vs IgG control): no significant change in mice body weight
serum level of GOT, GPT, BUN, albumin and creatinine (MiaPaCa-2 cells; 5 mg/kg i.v., vs IgG control): No obvious difference
cell migration ability induced by rCHI3L1 (wound closure area) [1]: significantly reduced cell migration ability
p-AKT and p-ERK levels induced by rCHI3L1 (HCT116 and A549 cells): Inhibition of p-AKT and p-ERK
